Assay results as given in patent publication US20250163164A1 (LANOVA MEDICINES DEVELOPMENT, published 2025).
Numbering of substitutions follows the chain as printed. Values joined by “and” are separate entries in the source; they are usually repeats but may differ in a detail not shown here. Equal entries are not always repeated.

T1: human interleukin 13 receptor subunit alpha 2 (IL-13RA2) (human, UniProt Q14627 27-380)
T1 construct: whole, on cells; also called IL-13Rα2; CD213A2
T1 sequence (looked up): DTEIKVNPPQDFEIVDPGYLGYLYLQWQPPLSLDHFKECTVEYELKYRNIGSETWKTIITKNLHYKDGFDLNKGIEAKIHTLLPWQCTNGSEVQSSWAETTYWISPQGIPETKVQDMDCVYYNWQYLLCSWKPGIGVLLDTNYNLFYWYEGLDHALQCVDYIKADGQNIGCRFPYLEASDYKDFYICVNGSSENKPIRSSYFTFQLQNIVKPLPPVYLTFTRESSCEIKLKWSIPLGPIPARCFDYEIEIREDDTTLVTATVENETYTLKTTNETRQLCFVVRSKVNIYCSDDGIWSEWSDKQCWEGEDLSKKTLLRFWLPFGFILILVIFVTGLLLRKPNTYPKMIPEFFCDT

B1: 57F8H3F1 (antibody, V domains shown)
VH: QVQLQQPGAELVRPGASVKLSCKASGYTFTNYWMNWIKQRPEQGLEWIGRIDPYETETHYNQKFRDRAILTVDKSSSTAFMQLSGLTSEDSAVYYCARGYGHYYGVDYWGQGTSVTVSS
VL: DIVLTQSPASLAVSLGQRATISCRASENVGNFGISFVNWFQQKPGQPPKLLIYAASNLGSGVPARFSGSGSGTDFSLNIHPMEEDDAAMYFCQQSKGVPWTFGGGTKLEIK
notes: purified mouse antibody
B2: 24G6D5 (antibody, V domains shown)
VH: QVQLQQSGPELVKPGTSVKMSCKASGYTFTSNYIHWVKQRPGQGLEWIGWIYPGDGSIKYNEKFKGKTTLTADKSSSTVYMLLSSLTSEDSAIYFCAVLRRLDYWGQGTTLTVSS
VL: DIVLTQSPATLSVTPGDSVSLSCRASQSISNNLHWYQQKSHESPRLLIKYASQSISGIPSRFSGSGSGTDFTLSINSVETEDFGMYFCQQSNSWPLTFGAGTKLELK
notes: purified mouse antibody
B3: 34A5G9 (antibody, V domains shown)
VH: EVHLQQSGPELVKPGASVKISCKTSGYTFTEYTMHWVKQSHGKSLEWIGRINPNNGIAEYKQTFKDKATLAVDKSSSTAYMEFRSLTSEDSAVYYCARGEGYGYWFAYWGQGTLVTVSA
VL: DIQMTQSPASLSASVGETVTITCRTSDNIYSYLAWYQQRQGKSPQLLVSNARTLAEGVPSRFSGSGSGTQFSLKINSLQPEDFGIYYCQHHSGTPFTFGSGTNLEIE
notes: purified mouse antibody
B4: xi73A11E2 hIgG1 (antibody, V domains shown)
VH: EVKLVESGGGLVKPGGSLKLSCAASGFTFSSYGMSWVRQTPEKRLEWVATISGGGSYTYYPDSVKGRFTISRDNARNNLYLQMNSLRSEDTALYYCARRDLRSAMDYWGQGTSVTVSS
VL: DIVMTQSQKFMSTSVGDRVSVTCKASQNVDINVAWYQQKPGQSPKALIYSASYRYSGVPDRFTGSGSGTDFTLTISNVQSEDLAEFFCQQYNSYPLTFGGGTKLEIK
B5: xi57F8H3F1 hIgG1 (antibody, V domains shown)
VH: B1 VH
VL: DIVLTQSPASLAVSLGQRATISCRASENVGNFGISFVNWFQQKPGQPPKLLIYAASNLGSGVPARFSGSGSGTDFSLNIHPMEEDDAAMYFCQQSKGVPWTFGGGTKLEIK
B6: xi61H8C1 hIgG1 (antibody, V domains shown)
VH: QVQLQQSGAELARPGASVMLSCKASGYTFTSYWTQWIKQRPGQGLEGIGAIYPGDDDTSYNQKFKGKATLTADKSSSTAYMQLNSLTSEDSAVYYCARGATLLRPFPYWGQGTLVTVSA
VL: DIVMTQSHKFMSTSVGDRVSITCKASQDVSTAVAWYQQKPGQSPKLLIYSASYRYTGVPDRFTGSGSGTDFTFTISSVQAEDLAVYSCQQHYSIPPTFGGGTKLEIK
B7: xi54A4F7 hIgG1 (antibody, V domains shown)
VH: B4 VH with R76K, N84S, Y107H
VL: B4 VL with K24R, A46S, F86Y, K107R
B8: xi62A8D8 hIgG1 (antibody, V domains shown)
VH: B4 VH with R76K, N84S
VL: B4 VL with S93N
B9: xi74B5E4 hIgG1 (antibody, V domains shown)
VH: B4 VH with K19R, S31T, R76K, N84S
VL: B4 VL with F86Y, S93T
B10: xi51G2B3 hIgG1 (antibody, V domains shown)
VH: QVQLQQSGPELVKPGASVKISCKASGYAFSDSWMNWVKQRPGQGLEWIGRIYPGDGDTNYNGKFKGKATLTADKSSNTAYMQLSSLTSVDSAVYFCARSWNGSPWFPYWGQGTLVTVSA
VL: DVLMTQTPLSLPVSLGDQASISCRSSQTIAHRNGNTYLEWYLQKPGQSPKLLLYKVSNRFSGVPDRFSGSGSGTDFTLKISRVEAEDLGVYYCFQGSHVTWTFGGGTKLEIK
B11: xi24G6D5 hIgG1 (antibody, V domains shown)
VH: B2 VH
VL: B2 VL
B12: xi62F6A8 hIgG1 (antibody, V domains shown)
VH: B6 VH with L4I, S31D, T34M, D56G, S59A, K65R, T87A, Y95F, Y108F
VL: B6 VL with T56A
B13: xi34A5G9 hIgG1 (antibody, V domains shown)
VH: B3 VH
VL: B3 VL

What follows are binders tested against T1, human interleukin 13 receptor subunit … (assay: FACS on A375 cells).
Experimental: (§1) A375 cells that endogenously expressed IL-13RA2 were harvested from flasks. 100 μl of 1×10⁶ cells/ml of cells were incubated with primary antibodies in 4-fold serial dilutions starting from 100 nM to 0.006 nM for 30 minutes on ice. After being washed with 200 μl of FACS buffer twice, cells were incubated with secondary antibody for 30 minutes on ice. Cells were washed with 200 μl of FACS buffer twice and analyzed by FACS.

EC50 [pM]	Top (MFI)	Binder
700	246000	B1
680	226000	B2
670	248000	B3

Molecular target: T1, human interleukin 13 receptor subunit …
Test: FACS on A375 cells
Remark: another data set of the same source
Experimental: as §1, with “expressed IL-13RA2,” for “expressed IL-13RA2”, “primary humanized” for “primary”, “from 200” for “from 100”, “to 0.003” for “to 0.006”

EC50	Binder
260 pM and 359 pM and 450 pM	B4
330 pM and 410 pM	B5
160 pM	B6

The binders below were run against T1, human interleukin 13 receptor subunit … (assay: cell-based or functional assay).

internalization EC50 (pHAb dye), A375 cells [nM]	internalization EC50 (pHAb dye), CHO-K1/H_IL-13RA2 cells [nM]	internalization EC50 (pHAb dye), HEK-293/H IL-13RA2 cells [nM]	internalization Top (MFI), A375 cells [MFI]	internalization Top (MFI), CHO-K1/H_IL-13RA2 cells [MFI]	internalization Top (MFI), HEK-293/H IL-13RA2 cells [MFI]	Binder
0.66	1.42	1.65	5500	18000	22800	B7
1	1.58	1.88	5550	17200	23300	B8
0.77	1.52	1.98	4310	17900	23500	B4
~0.437	0.91	1.31	5170	17700	21600	B9
1.32	1.84	3.84	6380	17100	28900	B10
0.74	2.37	2.42	2720	19200	26000	B5
0.61	0.86	2.76	4110	12700	23700	B11
~0.441	1.02	1.49	3820	16900	24700	B6
~0.447	1.17	1.73	4530	15900	22300	B12
3.63	1.38	1.78	8610	13900	25700	B13

Molecular target: T1, human interleukin 13 receptor subunit …
Test: FACS on A375 cells
Remark: another data set of the same source
Experimental: as §1, with “expressed IL-13RA2,” for “expressed IL-13RA2”, “primary chimeric” for “primary”, “in 3-fold” for “in 4-fold”, “from 300” for “from 100”, “to 0.002” for “to 0.006”
As shown in FIG. 3 and Table 4, the chimeric antibodies bound to human IL-13RA2 at different EC50.

EC50 [pM]	Top (MFI)	Binder
630	18000	B7
820	17300	B8
650	18000	B4
700	18100	B9
640	15500	B10
990	17600	B5
880	15200	B11
470	15600	B6
480	15800	B12
260	16700	B13
